# Test results reported in US11066655B2, “RNA polymerase, methods of purification and methods of use” (President and Fellows of Harvard College, priority 2013, dated 2021).
# What was measured:
# [1] = tested on: DNA templates S5P-tDNAR or T7P-tDNAR; test: Run-off synthesis of small RNA (tRNA^Arg), analytical scale, denaturing gel; format: biochemical; settings: for N+1 product in tRNA^Arg synthesis: 37° C., 22, 67, 200 nM enzyme; for N+1 product in run-off products: all temperatures (16° C., RT, 37° C.) and KCl concentrations examined
# Text: FIGS. 10A-10B depict a comparison of T7 and Syn5 RNA polymerase in run-off synthesis of small RNA. A) Effect of temperature and salt concentration on the RNA synthesis by T7 and Syn5 RNA polymerase. B) Similar as A) except that His-tagged T7 RNA polymerase was used.
# FIGS. 11A-11B depict synthesis of tRNA^Arg by Syn5 and T7 RNA polymerase. A) Synthesis of tRNA^Arg at analytical scale by various amounts of Syn5 and T7 RNA polymerase. Using radioactively labeled CTP, the tRNA^Arg and N+1 product (as marked) produced by 22, 67, 200 nM Syn5 and T7 RNA polymerase at 37° C. are shown. […] The DNA encoding E. coli tRNA^ArgACG is directly downstream of a Syn5 or T7 promoter for the cognate RNA polymerase to synthesize run-off tRNA transcript. B) Synthesis of tRNA^Arg at preparative scale by Syn5 and T7 RNA polymerase. The sequencing gel is showing the analysis of the total RNA products by Syn5 and T7 RNAP at 37° C. in a 200 µl reaction. RNAs were purified by either ZYMO RNA clean kit or phenol/chloroform extraction followed by ethanol precipitation (P/C/E), as noted on top of the gel. The native tRNA^Arg (with modifications) overexpressed and purified from E. coli cells was used as a size marker. The two major bands in the total RNAs are tRNA^Arg and N+1 product as marked.
# FIGS. 12A-12B depict synthesis of long run-off product and the incorporation of modified nucleotides by Syn5 and T7 RNA polymerase. A) On the linearized plasmid template as shown in the schematic, the production of RNA by either RNA polymerase (10 nM) was analyzed on agarose gel as lane 2. […] Lane 3 and 4 show the same RNA synthesis when CTP was replaced by 5mCTP and UTP by Ps-UTP, respectively. B) Incorporation of UTP or Ps-UTP into small RNA by 22, 67, and 200 nM Syn5 and T7 RNA polymerase as analyzed by denaturing TBE polyacrylamide gel. Full-length run-off product and the N+1 product are shown.
# DNA templates for transcription assays were either plasmids or dsDNA fragments made of synthesized oligonucleotides. To test the processivity of Syn5 and T7 RNAP, a single Syn5 or T7 promoter plus 3 guanosine downstream of the promoter (Syn5 5′-ATTGGGCACCCGTAAGGG-3′ (SEQ ID NO:1) or T7 5′-[…]-3′) (SEQ ID NO:2) was inserted between the BamHI and XbaI sites of plasmid pUC19 to form pUC19-S5P or pUC19-T7P. The templates for run-off tRNA^Arg synthesis were formed by annealing of two complementary synthesized DNA oligos of which sequences are as following:
# For the results shown in FIG. 10, reaction mixtures (10 μl) contained 40 mM Tris-HCl pH 8.0, 6 mM MgCl2, 2 mM spermidine, 10 mM DTT, 200 µm[…]P, GTP and UTP, 10 µM [[…]-^32P]CTP, 1.5 U/µl RNaseOUT™ recombinant ribonuclease inhibitor, 0.5 μM DNA templates S5P-tDNAR or T7P-tDNAR, 100 nM Syn5 or T7 RNAP, and various amount of KCl as noted in the figure. Reactions were carried out at various temperatures of 16° C., room temperature, or 37° C. for 30 min before adding of one unit of DNase I to each reaction mixture and an additional incubation of 15 min at 37° C. Reactions were then terminated by the addition of 4 µl of loading dye containing 95% formamide and 40 mM EDTA. Samples were then heated at 90° C. for 1 min and 4 µl sample each was loaded onto 15% TBE-Urea denaturing polyacrylamide gels. After electrophoresis, gels were dried and analyzed using a Fuji BAS 1000 Bioimaging Analyzer.
# For the results shown in FIG. 11A, reaction mixtures (10 μl) containing 40 mM Tris-HCl pH 8.0, 6 mM MgCl2, 2 mM spermidine, 10 mM DTT, 200 µM[…]P, GTP and UTP, 10 µM [[…]-^32P]CTP, 1.5 U/µl RNaseOUT™ recombinant ribonuclease inhibitor, 0.5 μM DNA templates S5P-tDNAR or T7P-tDNAR, and various amount of Syn5 or T7 RNAP were incubated at 37° C. for 30 min before adding of one unit of DNase I to each reaction mixture and an additional incubation of 15 min at 37° C. Reactions were then terminated by the addition of 4 µl of loading dye containing 95% formamide and 40 mM EDTA. […]
# plasmid pET24-S5 RNAP = test: Incorporation of AMP by RNA polymerases from the improved purification; format: biochemical
# Method: FIGS. 8A-8B depict RNA polymerases described further herein. A) SDS-PAGE gel of Syn5 RNA polymerase purified as previously reported (S50, 18), newly purified Syn5 RNA polymerase using Ni-NTA chromatography in the presence of 2 M NaCl (S5N1), newly purified Syn5 RNA polymerase purified using Ni-NTA and gel filtration chromatography in the presence of 2 M NaCl (S5N2), and T7 RNA polymerase. B) Incorporation of AMP at RT by 50 nM RNA polymerases shown in A). A plasmid with both a Syn5 and T7 promoter was used as template for transcription.
# Reactions for FIG. 8B contained 40 mM Tris-HCl pH 8.0, 2 mM spermidine, 10 mM DTT, 200 µM[…] GTP, C[…]P, UTP and ^3H-ATP (20 cpm/pmole), 1.5 U/µl RNaseOUT™, 50 nM Syn5 or T7 RNAP and 4 nM plasmid pET24-S5 RNAP. Reaction mixtures were incubated at room temperature (RT, ˜24° C.). After various times the reactions were stopped by the addition of 20 mM EDTA. 4 µl of the mixtures were then loaded onto Whatman DE81 filter paper disks and the disks were washed to remove the unincorporated ^3H-ATP. The amount of insoluble ^3H-AMP, corresponding to nucleotides incorporated into newly synthesized RNA, was measured using a scintillation counter. The data were analyzed using Prism software.
Molecule,run-off synthesis at high salt ([1]; 160 mM KCl),N+1 product in tRNA^Arg synthesis [1],N+1 product in run-off products [1],"products when UTP replaced by Ps-UTP ([1]; small RNA, radioactively labeled CTP)","activity of enzyme purified by Ni-NTA and gel filtration (plasmid pET24-S5 RNAP; 50 nM RNAP, RT)",increase of specific activity by improved purification (2 M NaCl) (plasmid pET24-S5 RNAP; versus previous three-step purification),run-off synthesis at high salt ([1]; 250 mM KCl)
"T7 RNAP: RNA polymerase encoded by bacteriophage T7, from New England Biolabs [reference compound]",little activity,more N+1 product than the desired product,abundant amounts of the N+1 product,produced predominantly N+1 products,–,–,–
"Syn5 RNAP: single subunit DNA-dependent RNA polymerase from marine cyanophage Syn5, amino acid sequence SEQ ID NO:23 (protein, Amino acid sequence of a cyanophage Syn5 RNAP) MSFDLIARQLQRETEAAELARKRLQDARREANERSYASSNIESRKAIATFLDPIAQRIGERLFTLRRGTGAVDAAEVYKHLKNADHHHLALITMKTALDVLGKDPEPQIQQLTTAIGRNIQLELRLTYYAEENPELYKQASRFFHAGTGTRQKATVIKLKFNREGIEWDQWSRVTCHKVGQWLMLAMADVTGWIERATDRTSGGRKTKTRICYSREFLQHRDTILAAAEQLAFCQWPMLCPPIEWSNDHNGGYLSEQIRRVNPLIRKTGPLGTRKQGDIPLAMLNNLQGQAYKVNPEVLDIANHCYESNVTVGKFIRHAPLPVPPSPGEDCTEDQLTAYKRARREAEDFNAQISQKNWRTTEVMYVARKYADEASFWMPASFDYRGRVYFLNTALNPQGTDFDKALLYFAEEGPVNEWWLSFHVATTYGLDKETMVNRVQWARDNHELIDRIASDPVRHTEWHDADEPWCFLAACLEYKACVIDGTKQTSGLPIGIDATCSGLQHLAAMTRCGRTAALVNVTPTDKPADAYKTVAQASLKHLPKEQHEWITRKVTKRPVMCTPYGVTMSSARGYIRDQLVKDGHKEDLRSPGVLNGIVKAIFNEAIPEVIPGPVQVMAWLKRSAGQIIDRGDSTITWTTPSGFEVVQDLKKSKTYEVKTRIMGGARIKLQVGDGFTDEPDRDHHKSALAPNVVHSNDASLLHLTFAFWDKPFTVIHDCVLGRSCDMDQMGSDIRLHFAEMYKADVMQDWADQVGVELPVDLIKNTLDIDSVNQSLYFFS",–,absence of N+1 product,did not contain detectable N+1 product band,–,close to that of T7 RNAP,2 fold,produces significant amounts of product
